Publication PMC11746154, “Cryo-EM structures of the Spo11 core complex bound to DNA” (Nature Structural & Molecular Biology, 2023)

T1: Spo11 (subunit of the purified S. cerevisiae Spo11 core complex) (S. cerevisiae, UniProt P23179 1-392)
T1 construct: Spo11, S. cerevisiae
T1 sequence: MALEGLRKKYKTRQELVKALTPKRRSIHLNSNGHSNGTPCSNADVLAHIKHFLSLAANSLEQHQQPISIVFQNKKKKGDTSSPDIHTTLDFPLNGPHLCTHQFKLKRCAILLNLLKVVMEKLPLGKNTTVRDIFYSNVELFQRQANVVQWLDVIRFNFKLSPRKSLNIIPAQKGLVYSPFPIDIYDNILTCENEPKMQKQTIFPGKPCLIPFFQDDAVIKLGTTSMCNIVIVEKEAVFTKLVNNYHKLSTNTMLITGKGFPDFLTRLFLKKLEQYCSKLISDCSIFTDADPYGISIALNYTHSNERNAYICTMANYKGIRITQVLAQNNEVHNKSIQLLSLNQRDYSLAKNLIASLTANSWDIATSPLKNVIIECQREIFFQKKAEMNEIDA

B1: Rec102 (subunit of the purified S. cerevisiae Spo11 core complex) (natural protein)
chain: MARDITFLTVFLESCGAVNNDEAGKLLSAWTSTVRIEGPESTDSNSLYIPLLPPGMLKIKLNFKMNDRLVTEEQELFTKLREIVGSSIRFWEEQLFYQVQDVSTIENHVILSLKCTILTDAQISTFISKPRELHTHAKGYPEIYYLSELSTTVNFFSKEGNYVEISQVIPHFNEYFSSLIVSQLEFEYPMVFSMISRLRLKWQQSSLAPISYALTSNSVLLPIMLNMIAQDKSSTTAYQILCRRRGPPIQNFQIFSLPAVTYNK
notes: Rec102, S. cerevisiae

What was measured:
[1] = target: T1, Spo11 (subunit of the purified S. …); test: cryo-EM structure; core complex (subunits co-expressed and co-purified, ~0.2 mg/ml) incubated with hairpin DNA (3.7 Å) or gapped DNA (3.3 Å) at 1:2 protein:DNA in 25 mM HEPES-NaOH pH 7.5, 150 mM NaCl, 5 mM MgCl2, 2 mM DTT, 2% glycerol, 1 h on ice; conditions: both partners purified
[2] = target: B1; test: as above; conditions: both partners purified

stoichiometry N [1] | stoichiometry N [2] | Binder
1 | – | B1
1 | 1 | Rec104 (subunit of the purified S. cerevisiae Spo11 core complex) (natural protein, Rec104, S. cerevisiae; 182 residues as printed, of which only 9-58 are visible in the structure) MSIEEEDTNKITCTQDFLHQYFVTERVSIQFGLNNKTVKRINKDEFDKAVNCIMSWTNYPKPGLKRTASTYLLSNSFKKSATVSLPFILGDPVCMPKRVESNNNDTCLLYSDTLYDDPLIQRNDQAGDEIEDEFSFTLLRSEVNEIRPISSSSTAQILQSDYSALMYERQASNGSIFQFSSP
1 | – | Ski8 (subunit of the purified S. cerevisiae Spo11 core complex) (natural protein, Ski8, S. cerevisiae) MSKVFIATANAGKAHDADIFSVSACNSFTVSCSGDGYLKVWDNKLLDNENPKDKSYSHFVHKSGLHHVDVLQAIERDAFELCLVATTSFSGDLLFYRITREDETKKVIFEKLDLLDSDMKKHSFWALKWGASNDRLLSHRLVATDVKGTTYIWKFHPFADESNSLTLNWSPTLELQGTVESPMTPSQFATSVDISERGLIATGFNNGTVQISELSTLRPLYNFESQHSMINNSNSIRSVKFSPQGSLLAIAHDSNSFGCITLYETEFGERIGSLSVPTHSSQASLGEFAHSSWVMSLSFNDSGETLCSAGWDGKLRFWDVKTKERITTLNMHCDDIEIEEDILAVDEHGDSLAEPGVFDVKFLKKGWRSGMGADLNESLCCVCLDRSIRWFREAGGK
